# Assay results: publication PMC8686788 (Science (New York, N.Y.), 2021)
# Where two headings read alike, the source gives them in different places.
# T1: KaiC-EA (Synechococcus elongatus, UniProt Q79PF4 1-519, S431E (KaiC-EA) | T432A (KaiC-EA))
# T1 sequence (looked up): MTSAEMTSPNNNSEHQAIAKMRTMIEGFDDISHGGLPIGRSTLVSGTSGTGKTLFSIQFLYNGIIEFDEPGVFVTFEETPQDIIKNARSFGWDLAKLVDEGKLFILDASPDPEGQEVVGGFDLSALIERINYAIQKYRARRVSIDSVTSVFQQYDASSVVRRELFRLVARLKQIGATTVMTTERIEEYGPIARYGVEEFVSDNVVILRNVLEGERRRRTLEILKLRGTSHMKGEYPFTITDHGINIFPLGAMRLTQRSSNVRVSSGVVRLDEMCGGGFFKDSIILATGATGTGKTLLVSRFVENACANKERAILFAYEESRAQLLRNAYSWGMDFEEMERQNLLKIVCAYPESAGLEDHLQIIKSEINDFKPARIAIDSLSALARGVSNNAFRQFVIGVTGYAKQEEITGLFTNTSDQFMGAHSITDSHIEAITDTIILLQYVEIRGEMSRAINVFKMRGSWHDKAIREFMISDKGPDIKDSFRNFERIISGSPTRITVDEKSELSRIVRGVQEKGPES
# T2: KaiC (Synechococcus elongatus, UniProt Q79PF4 1-519)
# T2 sequence (looked up): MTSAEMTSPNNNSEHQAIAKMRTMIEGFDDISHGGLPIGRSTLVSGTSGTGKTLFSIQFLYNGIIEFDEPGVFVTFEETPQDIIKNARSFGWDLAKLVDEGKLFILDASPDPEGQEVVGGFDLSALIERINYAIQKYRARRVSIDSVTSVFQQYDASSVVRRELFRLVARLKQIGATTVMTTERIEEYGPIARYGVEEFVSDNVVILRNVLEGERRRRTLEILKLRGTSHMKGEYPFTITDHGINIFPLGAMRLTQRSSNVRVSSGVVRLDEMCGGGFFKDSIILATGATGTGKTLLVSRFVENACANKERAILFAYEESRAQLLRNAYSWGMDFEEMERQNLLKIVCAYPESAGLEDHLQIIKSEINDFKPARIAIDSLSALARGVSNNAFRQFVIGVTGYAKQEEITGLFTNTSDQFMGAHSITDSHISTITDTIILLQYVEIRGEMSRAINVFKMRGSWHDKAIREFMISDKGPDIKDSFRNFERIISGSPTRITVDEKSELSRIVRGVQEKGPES
# T3: circadian input kinase A, CikA (Synechococcus elongatus, UniProt Q9KHI5 1-754, fluorescent probe attached by sortase A-mediated ligation)
# T3 sequence (looked up): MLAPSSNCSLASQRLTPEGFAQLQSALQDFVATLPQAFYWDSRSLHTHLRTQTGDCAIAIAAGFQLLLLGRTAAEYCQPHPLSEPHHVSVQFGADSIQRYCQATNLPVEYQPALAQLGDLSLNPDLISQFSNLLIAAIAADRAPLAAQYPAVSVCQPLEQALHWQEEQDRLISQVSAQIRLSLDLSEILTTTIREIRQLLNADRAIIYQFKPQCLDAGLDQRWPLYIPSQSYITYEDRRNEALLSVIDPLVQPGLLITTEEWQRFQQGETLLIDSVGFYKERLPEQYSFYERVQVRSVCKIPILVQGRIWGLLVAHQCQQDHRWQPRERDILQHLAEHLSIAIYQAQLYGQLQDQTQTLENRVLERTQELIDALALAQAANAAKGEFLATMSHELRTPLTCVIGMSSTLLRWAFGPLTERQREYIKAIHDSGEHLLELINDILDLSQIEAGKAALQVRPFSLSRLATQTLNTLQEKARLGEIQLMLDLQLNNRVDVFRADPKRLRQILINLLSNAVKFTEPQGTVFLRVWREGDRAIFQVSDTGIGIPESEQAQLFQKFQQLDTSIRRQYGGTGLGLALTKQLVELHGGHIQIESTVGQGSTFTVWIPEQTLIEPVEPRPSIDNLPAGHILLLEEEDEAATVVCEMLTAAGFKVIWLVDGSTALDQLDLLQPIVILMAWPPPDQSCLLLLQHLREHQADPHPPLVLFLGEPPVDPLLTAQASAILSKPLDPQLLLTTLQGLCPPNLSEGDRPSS
# What was measured:
# Assay in all cases: fluorescence polarisation
# [1] = biological target: T1, KaiC-EA
# [2] = biological target: T2, KaiC
# [3] = biological target: T3, circadian input kinase A, CikA
# [4] = biological target: T2, KaiC; remark: listed apart in the source
binder,measurement,setting,value
"KaiB (natural protein, Synechococcus elongatus, UniProt Q79PF5 1-102, looked up, fluorescent probe attached by sortase A-mediated ligation) MSPRKTYILKLYVAGNTPNSVRALKTLKNILEVEFQGVYALKVIDVLKNPQLAEEDKILATPTLAKVLPLPVRRIIGDLSDREKVLIGLDLLYGELQDSDDF",binding result,[1],binds
same,binding result,[2],binds
"KaiB-KaiC complex (complex, Synechococcus elongatus) chain 1: MSPRKTYILKLYVAGNTPNSVRALKTLKNILEVEFQGVYALKVIDVLKNPQLAEEDKILATPTLAKVLPLPVRRIIGDLSDREKVLIGLDLLYGELQDSDDF chain 2: MTSAEMTSPNNNSEHQAIAKMRTMIEGFDDISHGGLPIGRSTLVSGTSGTGKTLFSIQFLYNGIIEFDEPGVFVTFEETPQDIIKNARSFGWDLAKLVDEGKLFILDASPDPEGQEVVGGFDLSALIERINYAIQKYRARRVSIDSVTSVFQQYDASSVVRRELFRLVARLKQIGATTVMTTERIEEYGPIARYGVEEFVSDNVVILRNVLEGERRRRTLEILKLRGTSHMKGEYPFTITDHGINIFPLGAMRLTQRSSNVRVSSGVVRLDEMCGGGFFKDSIILATGATGTGKTLLVSRFVENACANKERAILFAYEESRAQLLRNAYSWGMDFEEMERQNLLKIVCAYPESAGLEDHLQIIKSEINDFKPARIAIDSLSALARGVSNNAFRQFVIGVTGYAKQEEITGLFTNTSDQFMGAHSITDSHISTITDTIILLQYVEIRGEMSRAINVFKMRGSWHDKAIREFMISDKGPDIKDSFRNFERIISGSPTRITVDEKSELSRIVRGVQEKGPES",binding result,[3],binds
"KaiA (natural protein, Synechococcus elongatus, UniProt Q79PF6 1-284, looked up, fluorescent probe attached by sortase A-mediated ligation) MLSQIAICIWVESTAILQDCQRALSADRYQLQVCESGEMLLEYAQTHRDQIDCLILVAANPSFRAVVQQLCFEGVVVPAIVVGDRDSEDPDEPAKEQLYHSAELHLGIHQLEQLPYQVDAALAEFLRLAPVETMADHIMLMGANHDPELSSQQRDLAQRLQERLGYLGVYYKRDPDRFLRNLPAYESQKLHQAMQTSYREIVLSYFSPNSNLNQSIDNFVNMAFFADVPVTKVVEIHMELMDEFAKKLRVEGRSEDILLDYRLTLIDVIAHLCEMYRRSIPRET",binding result,[2],binds
"SasA-H28A-Q94A (enzyme, Synechococcus elongatus, UniProt Q06904 1-387, looked up) MGESLSPQALAQPLLLQLFVDTRPLSQAIVQRVKNILAAVEATVPISLQVINVADQPQLVEYYRLVVTPALVKIGPGSRQVLSGIDLTDQLANALPQWLVQQEAFFADREPPEVNIPFTELGQPETPALQQADAFFQLQQQYADLSERTKFLEQVIALVAHDLRNPLTAALLAVDTIQIRSQSFSVATAKEMQGLCSLFDQARSQLREIERMIAEILEATRHSGESLRINPREVVFEPLLQQVLEQLHERWRSKQQQLITDVPGDLPTLYADPDRLRQVLVNLLDNAIKYTPPGGTITIAALHRTSQKVQISISDTGSGIPRDQLSVIFKNLVRLSRDSSQEGYGIGLSVCQRIVQAHFGRIWVASELGQGSTFHFTMPVYRYTMPC",binding result,[4],binds
